Consider three molecules from patent EP1469082A1 (Boehringer Ingelheim International GmbH, dated 2004).

Experiment [1] concerns the target T1, recombinant HisHA-tagged APC3 (human, UniProt P30260 1-824).
T1 construct: Expressed from baculovirus in Sf9 or Hi5 cells and used as insect cell lysate; also called APC3/CDC27; not shown: HisHA tag
The experiment in a line: peptide matrix pull-down from insect cell lysate, western blot. (In western blotting, separated proteins are transferred to a membrane and probed.)

Experiment [2] has as its target T2, holo-APC (Anaphase Promoting Complex / cyclosome) from HeLa cells (human, UniProt Q9H1A4 1-1944; Q9UJX6 1-822; P30260 1-824; Q9UJX5 1-808; Q9UJX4 1-755; Q13042 …).
T2 construct: Native multisubunit complex with 11 known subunits; It carries substoichiometric amounts of endogenous CDH1; also called immunopurified APC; APC-IPs
The experiment in a line: peptide matrix pull-down from APC-containing fractions, western blot.

Experiment [3] deals with T3, APC7 C-terminal part (amino acids 298 to 565) comprising the block of TPRs (human, UniProt Q9UJX3 298-565, limits assumed).
T3 construct: Recombinantly expressed fragment; also called APC7 TPR domain; APC7 C-terminal fragment
Briefly: peptide binding assay with recombinant APC7 fragments.

Experiment [4] concerns the target T4, recombinant HisHA-tagged APC5 (UniProt Q9UJX4 1-755).
T4 construct: Expressed from baculovirus and used as insect cell lysate; not shown: HisHA tag
Briefly: peptide matrix pull-down from insect cell lysate, western blot.

The target in experiment [5] is T5, recombinant HisHA-tagged APC8 (UniProt Q9UJX2 1-597).
T5 construct: Expressed from baculovirus and used as insect cell lysate; also called APC8/CDC23; not shown: HisHA tag
The description is as above.

In experiment [6] the target is T6, APC7 fragment containing the N-terminal 297 amino acids (human, UniProt Q9UJX3 1-297, limits assumed).
T6 construct: Recombinantly expressed fragment; also called APC7 N-terminal fragment
Briefly: peptide binding assay with recombinant APC7 fragments.

The target of experiment [7] is T7, native CDC26 from late-eluting Q column fractions of HeLa extract (human, UniProt Q8NHZ8 1-85).
T7 construct: Endogenous protein in anion exchange fractions
The experiment in a line: peptide matrix pull-down from late-eluting Q column fractions, western blot.

T4 sequence (Q9UJX4 whole entry): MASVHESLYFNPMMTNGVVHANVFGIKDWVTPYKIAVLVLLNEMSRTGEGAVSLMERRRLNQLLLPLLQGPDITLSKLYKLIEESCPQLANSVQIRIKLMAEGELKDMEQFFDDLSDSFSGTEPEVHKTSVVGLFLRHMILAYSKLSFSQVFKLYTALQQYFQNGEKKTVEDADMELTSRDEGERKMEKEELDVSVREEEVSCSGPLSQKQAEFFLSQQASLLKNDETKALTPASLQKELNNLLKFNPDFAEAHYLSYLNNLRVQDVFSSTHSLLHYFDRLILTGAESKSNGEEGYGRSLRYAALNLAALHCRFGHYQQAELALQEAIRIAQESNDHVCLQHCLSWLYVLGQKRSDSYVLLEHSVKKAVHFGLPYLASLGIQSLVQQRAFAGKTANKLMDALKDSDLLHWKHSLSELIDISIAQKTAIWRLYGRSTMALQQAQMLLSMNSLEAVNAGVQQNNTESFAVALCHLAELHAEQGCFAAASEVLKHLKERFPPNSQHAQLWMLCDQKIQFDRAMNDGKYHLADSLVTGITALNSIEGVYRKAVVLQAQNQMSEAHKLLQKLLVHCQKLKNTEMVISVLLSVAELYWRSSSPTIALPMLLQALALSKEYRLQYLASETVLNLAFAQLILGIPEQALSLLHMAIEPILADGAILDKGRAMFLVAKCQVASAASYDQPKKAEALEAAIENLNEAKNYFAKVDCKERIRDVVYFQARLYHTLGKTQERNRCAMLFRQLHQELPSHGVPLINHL
T3 sequence (Q9UJX3 298-565 limits assumed): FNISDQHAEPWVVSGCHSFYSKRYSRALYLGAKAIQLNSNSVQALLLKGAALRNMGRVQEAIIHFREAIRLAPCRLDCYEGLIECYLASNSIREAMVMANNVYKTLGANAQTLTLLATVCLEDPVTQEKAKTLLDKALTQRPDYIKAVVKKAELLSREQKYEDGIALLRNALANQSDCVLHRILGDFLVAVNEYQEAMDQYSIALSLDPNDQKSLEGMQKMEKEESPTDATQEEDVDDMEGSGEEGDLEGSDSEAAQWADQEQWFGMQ
T5 sequence (Q9UJX2 whole entry): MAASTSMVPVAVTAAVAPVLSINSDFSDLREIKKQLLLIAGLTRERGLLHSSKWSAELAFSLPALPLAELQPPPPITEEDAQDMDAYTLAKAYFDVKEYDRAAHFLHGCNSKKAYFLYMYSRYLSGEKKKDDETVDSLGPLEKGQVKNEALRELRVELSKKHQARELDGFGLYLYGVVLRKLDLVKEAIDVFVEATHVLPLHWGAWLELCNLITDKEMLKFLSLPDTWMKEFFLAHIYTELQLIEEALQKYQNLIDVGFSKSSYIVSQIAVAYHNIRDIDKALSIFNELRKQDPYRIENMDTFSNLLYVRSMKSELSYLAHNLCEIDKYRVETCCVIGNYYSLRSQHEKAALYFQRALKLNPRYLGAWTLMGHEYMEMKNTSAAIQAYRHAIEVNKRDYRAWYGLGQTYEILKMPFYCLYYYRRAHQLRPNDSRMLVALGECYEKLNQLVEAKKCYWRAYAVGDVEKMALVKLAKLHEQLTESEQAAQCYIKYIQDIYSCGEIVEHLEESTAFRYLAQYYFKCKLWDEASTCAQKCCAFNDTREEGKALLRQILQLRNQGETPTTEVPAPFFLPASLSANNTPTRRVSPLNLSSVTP
T1 sequence (P30260 whole entry): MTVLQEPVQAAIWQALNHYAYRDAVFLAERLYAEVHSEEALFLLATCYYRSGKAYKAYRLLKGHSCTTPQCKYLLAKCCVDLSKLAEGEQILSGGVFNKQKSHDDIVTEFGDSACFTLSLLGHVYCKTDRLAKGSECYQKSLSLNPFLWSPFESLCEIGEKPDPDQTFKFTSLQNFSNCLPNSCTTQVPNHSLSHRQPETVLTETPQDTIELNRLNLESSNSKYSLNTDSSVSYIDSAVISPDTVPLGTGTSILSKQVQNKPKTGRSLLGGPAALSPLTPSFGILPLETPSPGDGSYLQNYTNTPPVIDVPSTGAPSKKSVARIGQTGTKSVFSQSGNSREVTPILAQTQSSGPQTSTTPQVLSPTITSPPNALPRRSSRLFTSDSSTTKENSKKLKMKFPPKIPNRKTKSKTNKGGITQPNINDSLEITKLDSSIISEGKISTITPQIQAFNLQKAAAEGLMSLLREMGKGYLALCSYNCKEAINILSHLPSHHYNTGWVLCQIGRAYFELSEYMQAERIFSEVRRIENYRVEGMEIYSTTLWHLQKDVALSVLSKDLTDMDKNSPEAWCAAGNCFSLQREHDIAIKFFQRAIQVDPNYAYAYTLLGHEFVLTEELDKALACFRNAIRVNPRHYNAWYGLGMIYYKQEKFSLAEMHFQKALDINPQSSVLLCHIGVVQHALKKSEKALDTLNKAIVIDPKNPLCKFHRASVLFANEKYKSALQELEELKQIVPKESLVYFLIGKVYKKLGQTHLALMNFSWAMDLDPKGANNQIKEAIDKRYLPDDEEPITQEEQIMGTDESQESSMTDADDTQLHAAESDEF
T6 sequence (Q9UJX3 1-297 limits assumed): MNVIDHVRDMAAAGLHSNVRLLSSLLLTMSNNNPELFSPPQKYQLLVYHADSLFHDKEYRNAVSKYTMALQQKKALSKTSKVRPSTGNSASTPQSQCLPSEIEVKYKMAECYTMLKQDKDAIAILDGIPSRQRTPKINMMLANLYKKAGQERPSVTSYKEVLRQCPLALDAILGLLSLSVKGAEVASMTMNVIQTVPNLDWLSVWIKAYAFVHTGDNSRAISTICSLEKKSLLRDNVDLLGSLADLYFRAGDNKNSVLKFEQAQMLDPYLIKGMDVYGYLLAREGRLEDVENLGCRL
T7 sequence (Q8NHZ8 whole entry): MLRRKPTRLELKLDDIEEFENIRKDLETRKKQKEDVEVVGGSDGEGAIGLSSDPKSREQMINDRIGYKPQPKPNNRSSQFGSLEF

Regarding CAVWSLSSCKPGFGVD [control peptide CAVWSLSSCKPGFGVD], the binding result in experiment [1] and in experiment [2] was “no binding” in each case.

B1: CDC20 C-terminal peptide CLRREREKASTSKSSLIHQGIR (peptide)
peptide: CLRREREKASTSKSSLIHQGIR
notes: Synthetic peptide; also called CDC20 C-terminus; CDC20 peptide
For the molecule B1, the binding result in experiment [3] is recorded as “binds”; in experiment [4], “no binding”; in experiment [5], “no binding”.

B2: CDH1 C-terminal peptide CFSKTRSTKESVSVLNLFTRIR (peptide)
peptide: CFSKTRSTKESVSVLNLFTRIR
notes: Synthetic peptide; also called CDH1 C-terminus; CDH1 peptide
B2: the binding result in experiment [3] is listed as “binds”; in experiment [6], “no binding”; in experiment [4], “no binding”; in experiment [5], “no binding”; in experiment [7], “no binding”.
